Data: the Human Domainome abundance scans (Beltran et al. 2025)
± gives the uncertainty stated by the source.

B1: PDZ and LIM domain protein 2, residues 284 to 339; numbered along this chain, Q96JY6 (parent)
chain: HTCEKCSTSIANQAVRIQEGRYRHPGCYTCADCGLNLKMRGHFWVGDELYCEKHAR

Variants of: B1
Test: abundance fitness (aPCA) (normalised: wild type 0, dead -1); higher = more abundant; growth selection in yeast, the domain comes from the species named
Settings: Homo sapiens

| Variant | abundance fitness |
| --- | --- |
| W44Y | 0.128 ± 0.19 |
| V45A | 0.022 ± 0.087 |
| V45C | -0.242 ± 0.16 |
| V45D | -0.434 ± 0.12 |
| V45E | 0.041 ± 0.083 |
| V45G | 0.107 ± 0.061 |
| V45H | 0.221 ± 0.11 |
| V45I | 0.29 ± 0.12 |
| V45K | 0.313 ± 0.1 |
| V45L | -0.063 ± 0.073 |
| V45M | -0.057 ± 0.07 |
| V45N | -0.155 ± 0.089 |
| V45P | -0.361 ± 0.12 |
| V45Q | -0.092 ± 0.12 |
| V45R | 0.108 ± 0.051 |
| V45S | -0.11 ± 0.072 |
| V45T | -0.585 ± 0.12 |
| V45W | -0.116 ± 0.094 |
| V45Y | 0.066 ± 0.062 |
| G46A | -0.206 ± 0.092 |
| G46C | -0.202 ± 0.16 |
| G46E | 0.047 ± 0.064 |
| G46F | -0.624 ± 0.24 |
| G46H | -0.238 ± 0.19 |

| Variant | abundance fitness |
| --- | --- |
| G46I | -0.223 ± 0.18 |
| G46K | 0.019 ± 0.12 |
| G46L | -0.134 ± 0.068 |
| G46M | -0.276 ± 0.14 |
| G46N | 0.112 ± 0.13 |
| G46P | -0.324 ± 0.093 |
| G46Q | -0.206 ± 0.11 |
| G46R | -0.031 ± 0.067 |
| G46S | -0.066 ± 0.07 |
| G46T | -0.202 ± 0.095 |
| G46V | -0.226 ± 0.081 |
| G46W | -0.429 ± 0.17 |
| G46Y | 0.044 ± 0.17 |
| D47C | -0.002 ± 0.11 |
| D47E | -0.12 ± 0.14 |
| D47F | -0.339 ± 0.21 |
| D47G | -0.11 ± 0.075 |
| D47H | -0.136 ± 0.098 |
| D47I | -0.135 ± 0.081 |
| D47K | 0.052 ± 0.12 |
| D47L | -0.026 ± 0.073 |
| D47M | -0.086 ± 0.11 |
| D47N | -0.11 ± 0.14 |
| D47R | 0.008 ± 0.061 |

| Variant | abundance fitness |
| --- | --- |
| D47S | 0.004 ± 0.077 |
| D47T | -0.047 ± 0.068 |
| D47V | -0.229 ± 0.089 |
| D47W | -0.1 ± 0.059 |
| D47Y | -0.224 ± 0.098 |
| E48A | -0.091 ± 0.061 |
| E48C | -0.289 ± 0.23 |
| E48D | -0.065 ± 0.19 |
| E48G | 0.079 ± 0.079 |
| E48H | -0.084 ± 0.32 |
| E48I | -0.174 ± 0.11 |
| E48K | -0.034 ± 0.12 |
| E48L | -0.082 ± 0.09 |
| E48M | -0.18 ± 0.12 |
| E48N | 0.203 ± 0.14 |
| E48P | -0.788 ± 0.1 |
| E48Q | -0.292 ± 0.14 |
| E48R | -0.079 ± 0.08 |
| E48S | -0.074 ± 0.11 |
| E48T | -0.286 ± 0.12 |
| E48V | -0.011 ± 0.095 |
| E48Y | -0.235 ± 0.075 |
| L49A | -0.159 ± 0.068 |
| L49C | -0.108 ± 0.066 |

| Variant | abundance fitness |
| --- | --- |
| L49E | -0.377 ± 0.081 |
| L49F | -0.343 ± 0.19 |
| L49G | -0.286 ± 0.068 |
| L49H | -0.343 ± 0.062 |
| L49I | 0.117 ± 0.18 |
| L49K | -0.733 ± 0.14 |
| L49M | -0.205 ± 0.13 |
| L49N | -0.942 ± 0.47 |
| L49P | -0.154 ± 0.12 |
| L49Q | -0.174 ± 0.12 |
| L49R | -0.885 ± 0.13 |
| L49S | -0.341 ± 0.081 |
| L49T | -0.207 ± 0.097 |
| L49V | -0.075 ± 0.086 |
| L49W | -0.39 ± 0.11 |
| L49Y | -0.269 ± 0.25 |
| Y50A | -0.188 ± 0.086 |
| Y50D | -0.079 ± 0.29 |
| Y50E | -0.673 ± 0.18 |
| Y50F | -0.001 ± 0.15 |
| Y50G | -0.501 ± 0.069 |
| Y50H | -0.083 ± 0.2 |
| Y50I | -0.194 ± 0.18 |
| Y50K | 0.04 ± 0.078 |

| Variant | abundance fitness |
| --- | --- |
| Y50L | -0.039 ± 0.084 |
| Y50M | 0.077 ± 0.093 |
| Y50N | -0.239 ± 0.17 |
| Y50Q | -0.256 ± 0.069 |
| Y50R | -0.008 ± 0.069 |
| Y50T | -0.289 ± 0.098 |
| Y50V | 0.072 ± 0.086 |
| Y50W | -0.161 ± 0.076 |
| C51A | -0.669 ± 0.16 |
| C51D | -0.593 ± 0.27 |
| C51E | -0.219 ± 0.16 |
| C51H | -0.827 ± 0.18 |
| C51I | -0.523 ± 0.37 |
| C51K | -0.839 ± 0.26 |
| C51P | -0.614 ± 0.14 |
| C51Q | -0.696 ± 0.35 |
| C51R | -0.969 ± 0.095 |
| C51S | -0.609 ± 0.12 |
| C51T | -1.16 ± 0.27 |
| C51V | -1.17 ± 0.15 |
| C51W | -1.05 ± 0.15 |
| C51Y | -0.94 ± 0.3 |
| E52A | -0.183 ± 0.059 |
| E52C | -0.246 ± 0.1 |

| Variant | abundance fitness |
| --- | --- |
| E52D | 0.029 ± 0.062 |
| E52F | -0.075 ± 0.14 |
| E52I | -0.468 ± 0.14 |
| E52K | -0.226 ± 0.095 |
| E52L | -0.156 ± 0.098 |
| E52M | -0.152 ± 0.08 |
| E52N | 0.18 ± 0.13 |
| E52P | 0.183 ± 0.12 |
| E52Q | -0.102 ± 0.22 |
| E52R | -0.256 ± 0.064 |
| E52S | -0.352 ± 0.094 |
| E52V | -0.605 ± 0.15 |
| E52W | -0.108 ± 0.11 |
| K53A | -0.198 ± 0.13 |
| K53C | -0.377 ± 0.16 |
| K53D | 0.078 ± 0.14 |
| K53E | 0.235 ± 0.094 |
| K53F | -0.089 ± 0.19 |
| K53G | -0.158 ± 0.081 |
| K53H | 0.377 ± 0.14 |
| K53I | -0.275 ± 0.18 |
| K53L | -0.135 ± 0.079 |
| K53N | -0.056 ± 0.094 |
| K53Q | 0.028 ± 0.075 |

| Variant | abundance fitness |
| --- | --- |
| K53R | -0.124 ± 0.06 |
| K53S | 0.184 ± 0.088 |
| K53T | 0.037 ± 0.12 |
| K53V | 0.007 ± 0.085 |
| K53W | 0.164 ± 0.11 |
| K53Y | 0.252 ± 0.2 |
| H54A | -0.865 ± 0.29 |
| H54C | 0.135 ± 0.084 |
| H54D | 0.128 ± 0.065 |
| H54G | -0.317 ± 0.12 |
| H54I | -0.755 ± 0.093 |
| H54K | -0.7 ± 0.33 |
| H54L | -0.653 ± 0.091 |
| H54M | -0.901 ± 0.25 |
| H54N | -0.465 ± 0.33 |
| H54P | -0.771 ± 0.18 |
| H54Q | -0.759 ± 0.15 |
| H54R | -0.655 ± 0.087 |
| H54S | -0.522 ± 0.097 |
| H54T | -0.7 ± 0.18 |
| H54V | -0.612 ± 0.067 |
| H54W | -0.856 ± 0.081 |
| H54Y | -0.284 ± 0.15 |
